Among the data in article doi:10.1101/2023.03.02.528060 are stoichiometry N values, retold here.

The target in assay [1] is Rous sarcoma virus integrase (1-286) R244A (Rous sarcoma virus (Prague A)). Kind of assay: SEC.
In assay [2] the target is Rous sarcoma virus integrase (1-286) R244E (Rous sarcoma virus (Prague A)). Description: SEC.
The target in assay [3] is Rous sarcoma virus integrase (1-286) Y246A (Rous sarcoma virus (Prague A)). Kind of assay: SEC.
The target in assay [4] is Rous sarcoma virus integrase, wt IN (1-278) (Rous sarcoma virus (Prague A)). Description: cryo-EM structure.
Assay [5] addresses Rous sarcoma virus integrase, wt full-length IN (1-286) (Rous sarcoma virus (Prague A)). Description: SEC.

“Rous sarcoma virus integrase (1-286) R244A (enzyme)” displayed a stoichiometry N in assay [1] of 2.
The substance “Rous sarcoma virus integrase (1-286) R244E (enzyme)” had a stoichiometry N in assay [2] of 2.
Take “Rous sarcoma virus integrase (1-286) Y246A (enzyme)”: the stoichiometry N in assay [3] was found to be 2.
In the case of “Rous sarcoma virus integrase, wt IN (1-278) (enzyme)”, in assay [4], the stoichiometry N was found to be 8.
With “Rous sarcoma virus integrase, wt full-length IN (1-286) (enzyme)”, the stoichiometry N in assay [5] was determined as 2.
